# Experimental data reported in publication PMC5910394 (Nature Communications, 2018).
# B1: memAb pertuzumab IgG with pre-bound 5-diphenylalanine-meditope-Alexa-647 (complex)
# VH: EVQLVESGGGLVQPGGSLRLSCAASGFTFTDYTMDWVRQSPGKGLEWVADVNPNSGGSIYNQRFKGRFTLSVDRSKNTLYLQMNSLRAEDTAIYYCARNLGDGFYAMDYWGQGTLVTVSS
# VL: DIQLTQSPVILSASVGDRVTITCRAGESVDIFGVGFLHWYQQRTNGSPRLLIYRASNLESGVPSRFSGSGSRTDFTLTISSLQPEDEADYYCQQTNEDPYTFGAGTKVEIK
# notes: as the heavy chain of Dm25; as the light chain of Dm25; as the peptide Dm26; non-covalent complex; source: IgG: ExpiCHO, purified; peptide: synthetic; copies: + +
# Target: T1, HER2 on BT474 cells (Homo sapiens, BT474 cells, UniProt P04626)
# T1 construct: HER2 (human epidermal growth factor receptor 2) on HER2-overexpressing BT474 breast cancer cells; source: endogenous, on BT474 cells
# Assay: flow cytometry on cells; BT474 cells with 1, 10 or 100 nM of the AF647-carrying memAb complex
# Details: one partner purified
binder,measurement,value
B1,binding result,binds
